Assay results published in US20250295111A1, “ANTIMICROBIAL PEPTIDES OF ACTI[…] METHODS OF USE THEREOF” (THE REGENTS OF THE UNIVERSITY OF CALIFORNIA, priority 2023, published 2025).

Test system: Saccharomyces cerevisiae
Test: Antimicrobial peptide inhibition assay (filter paper disk on YPD agar plate, zone of inhibition)
Assay type: cell-based
Conditions: protein extract from recombinant E. coli BL21 (DE3) overexpressing the AMP, 6-mm filter paper disk on YPD agar plate, 30° C. for 24 h
Description: A 102 amino acid AMP candidate from Streptosporangium becharense DSM 46887 (GenBank ID: MBB5817359.1) with a predicted molecular weight of 11.2 kDa, pI of 8.67 and charge of 3.5, was cloned in E. coli for functional validation. The sequence was codon optimized and sent to Twist Biosciences (San Francisco, CA) for synthesis and cloned into a pET-21 (+) expression vector. The plasmid DNA (pET-21 (+)_AMP_S.be) was then transferred into E. coli BL21 (DE3) strain with […] carbenicillin (MilliporeSigma, Burlington, MA) selection. To overexpress the short peptide, 100 mL of E. coli BL21 (DE3) harboring the recombinant plasmid was cultured in Luria-Bertani broth containing […] of carbenicillin at 37° C. until the mid-exponential phase. The overexpression was induced by addition of 0.1 mM isopropyl-b-D-thiogalactopyranoside (MilliporeSigma, Burlington, MA) at 25° C. and 120 rpm for 16 h. […]
Yeast Saccharomyces cerevisiae was used for the antimicrobial activity assessment with proteins extracted from the recombinant E. coli. […] After incubation at 30° C. for 24 h, the antimicrobial activity of the short peptide was determined by appearance of the zone of inhibition. To confirm the overexpression of the short peptide, the protein extract was analyzed using SDS-PAGE gel (12% Mini-PROTEAN_TGXTM Precast Gel, Bio-Rad Laboratories, Hercules, CA). […]

B1: AMP candidate from Streptosporangium becharense DSM 46887: 102 amino acid AMP candidate with signal peptide from Streptosporangium becharense DSM 46887, overexpressed in E. coli (protein)
chain: MKRIFLVPALTAGIFALTTGAAYASQYIAYEGPGFTGRSVLIDACGPSNIPYHGSYKWYGDGQSGRMYNQPNAHGVMHFRLPSNNNAEQRTPVGWQSIFIEC
modifications: Streptosporangium becharense
notes: 102 amino acid AMP candidate with signal peptide from Streptosporangium becharense DSM 46887, overexpressed in E. coli
  antimicrobial activity determined by appearance of the zone of inhibition: Inhibition of Saccharomyces cerevisiae is demonstrated
Listed as AMP candidate of Streptosporangium becharense DSM 46887
  antimicrobial activity determined by appearance of the zone of inhibition: Inhibition of Saccharomyces cerevisiae
